Measurements published in US5683985, “Oligonucleotide decoys and methods relating thereto” (The Salk Institute for Biological Studies).

Assays:
JUN = JUN (UniProt P05412); conditions: PS at 6 linkages within the Sp1 recognition octamer; K2PtCl4 crosslinking, SDS gel
CREB (CRE-BP) [1] = target: T1, CREB (CRE-BP) (UniProt P15337 P15337:1-327); experiment: EMSA; 50 mM KCl, 15 mM Tris pH 7.5, room temperature; conditions: chain copies: 2, label: 5'-32P
Description: (§1) Binding of the ligated CRE and CRE(s)_6 sequences to the CREB protein was carried out as previously described [Dwarki et al., EMBO J. 9:225–232 (1990); chu and Orgel, Nucleic Acids Res. 19:6958 (1991)]. Approximately 0.015 pmole of the [^32P]-CRE sequences was added to ~200 ng of pure CREB protein in 10 µl of buffer containing 50 mM KCl, 15 mM Tris, (pH 7.5), 0.1 mM EDTA, 0.5 mM DTT, 180 ng acetylated BSA and 250 ng (poly[dI-dC].poly[dI-dC]) and then incubated at room temperature for 15–20 minutes. Binding was detected by gel shift assay on 6% non-denaturing gels using 40 mM Tris-borate at pH 8.2 as the electrophoresis buffer. Binding of the ligated CRE sequences to an aliquot of nuclear extract from PC12 cells (4 μg total protein) was carried out in the same way. Binding of TRE sequences to the JUN protein was carried out similarly in 10 μl of buffer containing 50 mM Tris (pH 7.9), 100 mM KCl, 1 mM EDTA, 1 mM DTT, 12.5 mM MgCl_2, 20% glycerol and 250 ng (poly[dI-dC]·poly[dI-dC]). Binding was detected by non-denaturing gel electrophoresis on 6% acrylamide, using 20 mM Tris-borate (pH 8.2) as electrophoresis buffer.

CREB (CRE-BP) [2] = target: T1, CREB (CRE-BP); experiment: EMSA; bound more efficiently than the other oligomers; 50 mM KCl, pH 7.5; conditions: chain copies: 2; label: 32P; closed circular dumbbell
Description: as §1

CREB (CRE-BP) [3] = target: T1, CREB (CRE-BP); experiment: EMSA; PS does not diminish binding; K2PtCl4 crosslinking 40-50% of binding at 2.3 mM; conditions: chain copies: 2; label: 32P; closed circular dumbbell
Description: (§2) Binding of the ligated CRE and CRE(s)_6 sequences to the CREB protein was carried out as previously described [Dwarki et al., EMBO J. 9:225–232 (1990); chu and Orgel, Nucleic Acids Res. 19:6958 (1991)]. Approximately 0.015 pmole of the [^32P]-CRE sequences was added to ~200 ng of pure CREB protein in 10 µl of buffer containing 50 mM KCl, 15 mM Tris, (pH 7.5), 0.1 mM EDTA, 0.5 mM DTT, 180 ng acetylated BSA and 250 ng (poly[dI-dC].poly[dI-dC]) and then incubated at room temperature for 15–20 minutes. Binding was detected by gel shift assay on 6% non-denaturing gels using 40 mM Tris-borate at pH 8.2 as the electrophoresis buffer. Binding of the ligated CRE sequences to an aliquot of nuclear extract from PC12 cells (4 μg total protein) was carried out in the same way. Binding of TRE sequences to the JUN protein was carried out similarly in 10 μl of buffer containing 50 mM Tris (pH 7.9), 100 mM KCl, 1 mM EDTA, 1 mM DTT, 12.5 mM MgCl_2, 20% glycerol and 250 ng (poly[dI-dC]·poly[dI-dC]). Binding was detected by non-denaturing gel electrophoresis on 6% acrylamide, using 20 mM Tris-borate (pH 8.2) as electrophoresis buffer. […]

CREB (CRE-BP) [4] = target: T1, CREB (CRE-BP); experiment: EMSA; does not bind CREB; crosslinking <10% of CRE at 2 mM K2PtCl4, none at 0.3 mM; conditions: chain copies: 2; label: 32P; closed circular dumbbell
Description: as §2

CREB (CRE-BP) [5] = target: T1, CREB (CRE-BP); experiment: EMSA; crosslinks with K2PtCl4 at ~40% of ligCRE(s)6 efficiency; conditions: chain copies: 2; label: 32P; closed circular dumbbell
Description: For crosslinking of oligonucleotide to protein, approximately 0.015 pmole of the appropriate [^32P]-labelled dumbbell oligonucleotide was first incubated with 200 ng CREB or JUN protein in 10 μl of buffer containing 50 mM KCl, 15 mM Tris (pH 7.5), 0.1 mM EDTA, […], 180 ng acetylated BSA and 250 ng (poly[dI-dC]·poly[dI-dC]) as described above. After 15 minutes at room temperature, 1–3 μl of a freshly prepared solution containing the required amount of K_2PtCl_4 or transPt^II in buffer containing 1 mM phosphate (pH 7) and 0.1 mM EDTA was added to the reaction mixture. Incubation was continued at room temperature in the dark for 1 hour. 0.5 μl of a 5% solution of SDS was then added and the crosslinked product separated from non-crosslinked oligonucleotide on an 8% polyacrylamide gel using buffer containing 90 mM Tris-borate (pH 8.2) and 0.1% SDS (SDS gels disrupt noncovalently associated DNA-protein complexes).

T1 sequence (P15337 whole entry, one chain of several): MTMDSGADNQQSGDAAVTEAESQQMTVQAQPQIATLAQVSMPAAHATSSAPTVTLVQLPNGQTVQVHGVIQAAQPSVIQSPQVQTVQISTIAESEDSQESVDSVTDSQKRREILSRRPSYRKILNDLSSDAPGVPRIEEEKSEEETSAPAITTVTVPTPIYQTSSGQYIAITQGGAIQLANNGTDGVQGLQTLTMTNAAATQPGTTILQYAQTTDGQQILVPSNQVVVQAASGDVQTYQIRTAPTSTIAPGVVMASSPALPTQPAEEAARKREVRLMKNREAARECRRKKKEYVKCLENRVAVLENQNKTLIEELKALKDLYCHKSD
JUN, sequence (P05412 whole entry): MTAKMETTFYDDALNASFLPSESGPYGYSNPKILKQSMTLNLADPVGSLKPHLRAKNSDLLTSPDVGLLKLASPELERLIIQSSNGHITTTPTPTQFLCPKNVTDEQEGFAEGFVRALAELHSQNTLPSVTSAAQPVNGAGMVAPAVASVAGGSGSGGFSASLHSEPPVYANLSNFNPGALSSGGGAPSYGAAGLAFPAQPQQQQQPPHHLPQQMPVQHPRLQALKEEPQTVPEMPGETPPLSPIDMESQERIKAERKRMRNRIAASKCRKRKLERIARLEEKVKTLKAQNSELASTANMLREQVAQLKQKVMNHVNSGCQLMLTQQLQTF

For “CCTCTCGCTCGCCCCGCCCCGATCCTCTCGATCGGGGCGGGGCGAG [ligSp1(s)6 dumbbell]”, the binding signal (% of ligTRE(s)6 crosslinking) (JUN) was < 10.

B1: CRE 18-mer duplex (dsDNA)
DNA 1: AAATTGACGTCATGGTAA
DNA 2: TTACCATGACGTCAATTT
B1: binds (CREB (CRE-BP) [1]).

GTAACTCTCTTACCATGACGTCAATTTCTCTCAAATTGACGTCATG (structured_DNA) [CRE 46-mer nicked dumbbell]: binds (CREB (CRE-BP) [1]; nicked dumbbell).

GTAACTCTCTTACCATGACGTCAATTTCTCTCAAATTGACGTCATG (structured_DNA) [ligCRE dumbbell]: binds (CREB (CRE-BP) [2]).

GTAACTCTCTTACCATGACGTCAATTTCTCTCAAATTGACGTCATG (structured_DNA, PS at 6 linkages within the octamer (T(s)GAC(s)GTC(s)A on both strands)) [ligCRE(s)6 dumbbell]: binds (CREB (CRE-BP) [3]).

AAATTGACGTCATGGTAACTCTCTTACCATGACGTCAATTT (structured_DNA) [CRE 41-mer hairpin]: binds (CREB (CRE-BP) [1]; hairpin with CTCTC loop).

CCTCTCGCTCGCCCCGCCCCGATCCTCTCGATCGGGGCGGGGCGAG (structured_DNA, PS at 6 linkages within the Sp1 recognition octamer) [ligSp1(s)6 dumbbell]: no binding (CREB (CRE-BP) [4]).

In the case of ACTCTCTGTGTCTGACTCATGCTCTCTCAGCATGAGTCAGACAC (structured_DNA, PS at 6 linkages within the recognition sequence) [ligTRE(s)6 dumbbell], the binding signal (CREB (CRE-BP) [5]) is reported as ~0.1 fold of ligCRE(s)6.
